The results in this text go back to patent US11510992.

As a reminder, the EC50 is the midpoint of the concentration-response curve.

In assay [1] the target is neuraminidase of influenza A/CA/07/2009 (H1N1)pdm (influenza A virus A/CA/07/2009 (H1N1)pdm). Nature of the assay: cell-based or functional assay.
Assay [2] addresses neuraminidase of influenza A/HK/1/1968 (H3N2) (influenza A virus A/HK/1/1968 (H3N2)) (UniProt Q91MA2). As to the kind of experiment: cell-based or functional assay.
The target of assay [3] is neuraminidase of influenza B/Malaysia/2506/2004 (Victoria) (influenza B virus B/Malaysia/2506/2004 (Victoria)). Nature of the assay: cell-based or functional assay.
Assay [4] deals with Neuraminidase of influenza A/Hawaii/70/2019 (H1N1pdm09) (influenza A virus A/Hawaii/70/2019 (H1N1pdm09)). Nature of the assay: cell-based or functional assay.
The target in assay [5] is Neuraminidase of influenza A/Hong Kong/2671/2019 (H3N2) (influenza A virus A/Hong Kong/2671/2019 (H3N2)). As to the kind of experiment: cell-based or functional assay.
Assay [6] deals with Neuraminidase of influenza B/Phuket/3073/2013 (Yamagata) (influenza B virus B/Phuket/3073/2013 (Yamagata)). Nature of the assay: cell-based or functional assay.
The target in assay [7] is Neuraminidase of influenza B/Washington/02/2019 (Victoria) (influenza B virus B/Washington/02/2019 (Victoria)). As to the kind of experiment: cell-based or functional assay.
In assay [8] the target is cynomolgus monkey FcγR1/CD64 (cynomolgus monkey).
Assay [9] deals with cynomolgus monkey FcγR2A/CD32a (cynomolgus monkey).
The target of assay [10] is cynomolgus monkey FcγR2B/CD32b (cynomolgus monkey).
In assay [11] the target is human FcγR1/CD64 (human) (UniProt P12314).
Sequence of human FcγR1/CD64 (human) (P12314 16-288 limits assumed): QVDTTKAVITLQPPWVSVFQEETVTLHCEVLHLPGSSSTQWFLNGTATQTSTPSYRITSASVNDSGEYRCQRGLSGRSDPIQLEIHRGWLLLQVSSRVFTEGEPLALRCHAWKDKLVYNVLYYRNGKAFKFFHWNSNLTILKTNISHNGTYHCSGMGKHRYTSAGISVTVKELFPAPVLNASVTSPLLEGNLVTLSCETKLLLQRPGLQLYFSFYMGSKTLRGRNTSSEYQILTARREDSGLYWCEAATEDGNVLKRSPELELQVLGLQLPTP
In assay [12] the target is human FcγR2A/CD32a (R167) (human) (UniProt P12318).
Sequence of human FcγR2A/CD32a (R167) (human) (P12318 36-218 H167R): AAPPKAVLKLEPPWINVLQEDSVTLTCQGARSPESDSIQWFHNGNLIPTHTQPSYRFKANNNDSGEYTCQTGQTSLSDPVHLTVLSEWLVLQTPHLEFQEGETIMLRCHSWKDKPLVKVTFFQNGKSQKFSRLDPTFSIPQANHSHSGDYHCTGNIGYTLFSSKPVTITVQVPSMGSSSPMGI
For assay [13], the target named is mouse FcγR1/CD64 (mouse) (UniProt P26151).
Sequence of mouse FcγR1/CD64 (mouse) (P26151 25-297 limits assumed): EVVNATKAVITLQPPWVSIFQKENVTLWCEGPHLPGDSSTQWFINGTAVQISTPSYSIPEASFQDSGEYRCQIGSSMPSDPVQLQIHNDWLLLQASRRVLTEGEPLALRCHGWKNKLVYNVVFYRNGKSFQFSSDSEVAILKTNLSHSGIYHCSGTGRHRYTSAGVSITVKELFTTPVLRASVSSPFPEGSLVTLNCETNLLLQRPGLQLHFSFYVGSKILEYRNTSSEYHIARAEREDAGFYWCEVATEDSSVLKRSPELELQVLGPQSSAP
The target of assay [14] is mouse FcγR2B/CD32b (mouse) (UniProt P08101).
Sequence of mouse FcγR2B/CD32b (mouse) (P08101 30-210): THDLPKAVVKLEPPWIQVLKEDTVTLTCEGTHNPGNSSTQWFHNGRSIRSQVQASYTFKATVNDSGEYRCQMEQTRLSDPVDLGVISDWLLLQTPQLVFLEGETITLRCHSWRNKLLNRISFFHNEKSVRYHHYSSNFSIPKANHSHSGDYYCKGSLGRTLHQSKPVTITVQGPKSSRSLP
Assay [15] concerns the target rat FcγR1/CD64 (rat).
For assay [16], the target named is rat FcγR2A/CD32a (rat).
In assay [17] the target is rat FcγR2B/CD32b (rat) (UniProt Q63203).
Sequence of rat FcγR2B/CD32b (rat) (Q63203 32-212): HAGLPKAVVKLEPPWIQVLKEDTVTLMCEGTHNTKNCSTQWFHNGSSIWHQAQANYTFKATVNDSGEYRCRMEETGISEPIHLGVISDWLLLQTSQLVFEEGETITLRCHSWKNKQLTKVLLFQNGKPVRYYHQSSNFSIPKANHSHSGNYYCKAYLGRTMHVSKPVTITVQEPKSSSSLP
In assay [18] the target is rat FcγR3A/CD16a (rat) (UniProt Q6XPU4).
Sequence of rat FcγR3A/CD16a (rat) (Q6XPU4 21-203 limits assumed): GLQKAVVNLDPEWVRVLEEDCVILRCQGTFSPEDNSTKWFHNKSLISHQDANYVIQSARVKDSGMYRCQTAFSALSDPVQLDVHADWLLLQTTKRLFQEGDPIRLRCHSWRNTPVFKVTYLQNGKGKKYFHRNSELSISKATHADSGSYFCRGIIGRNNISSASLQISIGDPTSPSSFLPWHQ
Assay [19] concerns the target cynomolgus monkey FcRn (cynomolgus monkey) (UniProt Q8SPV9). Nature of the assay: pH 5.8.
For assay [20], the target named is human FcRn (human) (UniProt P55899). Nature of the assay: pH 5.8.
Sequence of human FcRn (human) (P55899 24-297 limits assumed, form in doubt, chain 1 of 2): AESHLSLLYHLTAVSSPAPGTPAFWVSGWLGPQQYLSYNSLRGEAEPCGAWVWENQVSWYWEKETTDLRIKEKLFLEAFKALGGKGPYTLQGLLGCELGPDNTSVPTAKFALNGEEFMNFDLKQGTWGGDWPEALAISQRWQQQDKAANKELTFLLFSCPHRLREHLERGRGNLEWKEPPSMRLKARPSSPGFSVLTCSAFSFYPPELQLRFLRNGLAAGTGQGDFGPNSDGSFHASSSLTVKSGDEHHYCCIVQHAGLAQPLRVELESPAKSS
Sequence of human FcRn (human) (chain, as listed by the source limits assumed, form in doubt, chain 2 of 2): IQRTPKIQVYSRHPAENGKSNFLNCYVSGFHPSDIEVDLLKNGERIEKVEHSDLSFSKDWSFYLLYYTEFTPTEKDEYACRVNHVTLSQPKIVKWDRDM
Assay [21] has as its target mouse FcRn (mouse) (UniProt Q61559). As to the kind of experiment: pH 5.8.
The target in assay [22] is rat FcRn (rat) (UniProt P13599). As to the kind of experiment: pH 5.8.
Sequence of rat FcRn (rat) (P13599 23-298 limits assumed, form in doubt, chain 1 of 2): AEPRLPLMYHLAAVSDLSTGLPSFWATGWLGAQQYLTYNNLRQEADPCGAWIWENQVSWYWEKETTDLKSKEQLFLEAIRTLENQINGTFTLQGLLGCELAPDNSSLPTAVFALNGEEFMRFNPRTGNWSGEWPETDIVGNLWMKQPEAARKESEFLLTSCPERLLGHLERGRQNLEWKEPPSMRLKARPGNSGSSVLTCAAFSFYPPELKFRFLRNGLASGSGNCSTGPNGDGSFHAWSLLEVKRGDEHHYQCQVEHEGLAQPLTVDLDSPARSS
Sequence of rat FcRn (rat) (chain, as listed by the source limits assumed, form in doubt, chain 2 of 2): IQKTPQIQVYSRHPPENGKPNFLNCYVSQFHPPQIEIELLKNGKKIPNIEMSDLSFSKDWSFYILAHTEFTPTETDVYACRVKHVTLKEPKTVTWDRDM
In assay [23] the target is cynomolgus monkey FcRn (cynomolgus monkey) (UniProt Q8SPV9). Nature of the assay: pH 7.4.
The target in assay [24] is mouse FcRn (mouse) (UniProt Q61559). Nature of the assay: pH 7.4.
Sequence of mouse FcRn (mouse) (Q61559 22-297 limits assumed, form in doubt, chain 1 of 2): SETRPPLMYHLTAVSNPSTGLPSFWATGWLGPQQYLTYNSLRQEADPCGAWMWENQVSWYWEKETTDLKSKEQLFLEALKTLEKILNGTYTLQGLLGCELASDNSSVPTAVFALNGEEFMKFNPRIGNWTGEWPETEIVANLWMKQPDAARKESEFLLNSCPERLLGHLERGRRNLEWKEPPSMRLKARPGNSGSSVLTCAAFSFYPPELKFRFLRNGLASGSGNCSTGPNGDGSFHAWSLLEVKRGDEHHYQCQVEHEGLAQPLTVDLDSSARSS
Sequence of mouse FcRn (mouse) (chain, as listed by the source limits assumed, form in doubt, chain 2 of 2): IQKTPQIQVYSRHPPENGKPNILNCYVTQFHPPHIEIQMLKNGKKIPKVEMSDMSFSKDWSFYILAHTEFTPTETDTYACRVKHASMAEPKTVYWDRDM

Turning to “Fc alone (SEQ ID NO: 73) (from UniProt P0DOX5 203-448)”, in assay [1], the ADCP (fold induction), reporter cells on MDCK cells, MOI 0 (fold induction) was 0.98; the ADCP (fold induction), reporter cells on infected MDCK cells, MOI 0.1 (fold induction) came to 1.14; the ADCP (fold induction), reporter cells on infected MDCK cells, MOI 0.3 (fold induction) was 1.03; the ADCP (fold induction), reporter cells on infected MDCK cells, MOI 1 (fold induction) amounted to 0.99. Moreover, in assay [1], the ADCP (fold induction), reporter cells on infected MDCK cells, MOI 3 (fold induction) stood at 0.93 and the ADCP (fold induction), reporter cells on infected MDCK cells, MOI 10 (fold induction) came out at 1.05. Also, in [2], the ADCP (fold induction), reporter cells on MDCK cells, MOI 0 (fold induction) turned out to be 1.02; the ADCP (fold induction), reporter cells on infected MDCK cells, MOI 0.1 (fold induction) turned out to be 1.07; the ADCP (fold induction), reporter cells on infected MDCK cells, MOI 0.3 (fold induction) is 1.05; the ADCP (fold induction), reporter cells on infected MDCK cells, MOI 1 (fold induction) came out at 1.18. For the same substance, in [2], the ADCP (fold induction), reporter cells on infected MDCK cells, MOI 3 (fold induction) was 1.01 and the ADCP (fold induction), reporter cells on infected MDCK cells, MOI 10 (fold induction) stood at 1.06. In addition, in assay [3], the ADCP (fold induction), reporter cells on MDCK cells, MOI 0 (fold induction) was determined as 1.07; the ADCP (fold induction), reporter cells on infected MDCK cells, MOI 0.1 (fold induction) came to 0.98; the ADCP (fold induction), reporter cells on infected MDCK cells, MOI 0.3 (fold induction) was found to be 0.99; the ADCP (fold induction), reporter cells on infected MDCK cells, MOI 1 (fold induction) worked out at 1.14. For the same substance, in assay [3], the ADCP (fold induction), reporter cells on infected MDCK cells, MOI 3 (fold induction) turned out to be 1.11 and the ADCP (fold induction), reporter cells on infected MDCK cells, MOI 10 (fold induction) was 1.

As to hIgG1 Fc (from UniProt P01857 84-329), the IC50, enzyme-linked lectin assay (ELLA), fetuin substrate, live virus in assay [4], in assay [5], in assay [6] and in assay [7] was above 1000 nM each time.

Regarding human IgG1 isotype control antibody, the EC50 in assay [8] stood at 0.37 nM; in assay [9], 693 nM; in [10] it was 1 nM; in [11], 7 nM; in assay [12] it was 144 nM; in assay [13] it was 3 nM. Besides, the EC50 in assay [14] amounted to 153 nM; in assay [15], 2 nM; in assay [16], 1 nM; in assay [17], 208 nM; in [18] it was 0.008 nM; in assay [19], 28 nM. The EC50 in assay [20] was determined as 44 nM; in assay [21], 5 nM; in assay [22], 13 nM; in [23] it was 78 nM; in [24] it was 40 nM.
